Test results from US20140087995A1 (published 2014).
Numbered stars: 1 amine (or outer) side, 2 acyl side, 3 side chain; on linkers, the order of the positions; unused ones are H or OH. Bridge positions count the residues as written; N and C are the ends. Side chains are listed from the residue outwards. Ends that are not written are not given here. * marks the point of attachment. C20 diacid = O=C(O)CCCCCCCCCCCCCCCCCCC(=O)*; C18 diacid = O=C(O)CCCCCCCCCCCCCCCCC(=O)*; C16 diacid = O=C(O)CCCCCCCCCCCCCCC(=O)*; γGlu = O=C(O)[C@H](CCC(=O)[*:2])N[*:1]; C14 diacid = O=C(O)CCCCCCCCCCCCC(=O)*; AEEA = NCCOCCOCC(=O)O

T1: human calcitonin receptor (human, UniProt P30988 25-474)
T1 sequence (looked up): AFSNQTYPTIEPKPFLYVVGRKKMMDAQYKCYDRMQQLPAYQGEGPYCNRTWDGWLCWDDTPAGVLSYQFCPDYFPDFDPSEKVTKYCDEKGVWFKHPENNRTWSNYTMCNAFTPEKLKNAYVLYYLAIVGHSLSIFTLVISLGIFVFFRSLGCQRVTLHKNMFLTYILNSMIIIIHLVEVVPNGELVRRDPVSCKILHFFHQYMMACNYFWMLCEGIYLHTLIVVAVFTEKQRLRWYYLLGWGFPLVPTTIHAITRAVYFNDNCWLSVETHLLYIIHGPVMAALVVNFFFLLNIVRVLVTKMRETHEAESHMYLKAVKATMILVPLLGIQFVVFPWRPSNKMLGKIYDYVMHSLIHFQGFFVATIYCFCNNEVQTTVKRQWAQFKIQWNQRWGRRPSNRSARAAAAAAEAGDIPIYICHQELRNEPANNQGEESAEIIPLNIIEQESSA

T2: human calcitonin receptor (human, UniProt P30988 25-474)
T2 construct: whole, on cells; Used as membranes prepared from the transfected cells (Assay VII); also called hCTR; hCT
T2 sequence (looked up): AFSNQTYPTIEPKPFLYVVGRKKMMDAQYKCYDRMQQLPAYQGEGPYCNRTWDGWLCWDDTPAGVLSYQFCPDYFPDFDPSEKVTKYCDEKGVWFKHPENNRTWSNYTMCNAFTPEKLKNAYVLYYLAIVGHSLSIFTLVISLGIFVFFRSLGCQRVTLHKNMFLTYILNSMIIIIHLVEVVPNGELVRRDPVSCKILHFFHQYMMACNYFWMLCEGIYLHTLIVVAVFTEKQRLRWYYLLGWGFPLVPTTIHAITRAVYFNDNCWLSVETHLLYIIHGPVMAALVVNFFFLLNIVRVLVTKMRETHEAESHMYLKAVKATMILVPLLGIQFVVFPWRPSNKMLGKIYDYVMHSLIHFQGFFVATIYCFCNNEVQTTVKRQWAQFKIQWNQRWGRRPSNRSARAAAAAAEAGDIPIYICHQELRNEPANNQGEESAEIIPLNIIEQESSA

T3: rat amylin receptor (rat calcitonin receptor + rat RAMP 3) (rat, UniProt P32214 25-516; Q9JJ73 23-147)
T3 construct: whole, on cells; Used as membranes prepared from the transfected cells (Assay VI); also called rAmylin-R; rat amylin 3(a) receptor
T3 sequence (looked up) 1: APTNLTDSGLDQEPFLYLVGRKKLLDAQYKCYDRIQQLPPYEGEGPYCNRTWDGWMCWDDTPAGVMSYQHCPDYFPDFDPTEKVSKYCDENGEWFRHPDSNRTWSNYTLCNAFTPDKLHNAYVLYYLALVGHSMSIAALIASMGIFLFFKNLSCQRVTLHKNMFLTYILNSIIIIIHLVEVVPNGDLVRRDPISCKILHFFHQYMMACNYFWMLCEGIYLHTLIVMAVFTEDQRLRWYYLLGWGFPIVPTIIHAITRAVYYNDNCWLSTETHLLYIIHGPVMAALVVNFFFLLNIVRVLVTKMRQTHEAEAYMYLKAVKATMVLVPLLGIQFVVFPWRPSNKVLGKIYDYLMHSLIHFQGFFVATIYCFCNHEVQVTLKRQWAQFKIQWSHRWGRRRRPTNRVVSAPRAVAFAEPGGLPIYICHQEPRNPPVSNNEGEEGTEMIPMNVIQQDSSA
T3 sequence (looked up) 2: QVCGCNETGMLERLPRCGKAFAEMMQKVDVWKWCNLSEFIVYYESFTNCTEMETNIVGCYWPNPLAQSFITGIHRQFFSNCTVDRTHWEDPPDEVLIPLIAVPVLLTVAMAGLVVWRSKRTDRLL

T4: rat calcitonin receptor (rat, UniProt P32214 25-516)
T4 construct: whole, on cells; Used as membranes prepared from the transfected cells (Assay VIII); also called rCTR; rat calcitonin (a) receptor
T4 sequence (looked up): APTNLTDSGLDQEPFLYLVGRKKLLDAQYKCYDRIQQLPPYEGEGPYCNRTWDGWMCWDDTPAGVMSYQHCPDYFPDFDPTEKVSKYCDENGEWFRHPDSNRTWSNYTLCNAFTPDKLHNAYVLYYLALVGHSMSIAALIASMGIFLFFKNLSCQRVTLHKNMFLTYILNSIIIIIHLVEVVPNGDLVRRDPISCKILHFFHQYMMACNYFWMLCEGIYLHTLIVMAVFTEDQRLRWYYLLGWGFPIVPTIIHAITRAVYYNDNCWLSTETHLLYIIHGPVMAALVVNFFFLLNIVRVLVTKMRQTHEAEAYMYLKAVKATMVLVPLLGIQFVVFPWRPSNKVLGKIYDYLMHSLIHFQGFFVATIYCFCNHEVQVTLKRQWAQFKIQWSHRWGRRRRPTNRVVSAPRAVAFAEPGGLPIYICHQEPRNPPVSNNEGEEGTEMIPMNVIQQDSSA


Assays:
[1] = biological target: T1, human calcitonin receptor; assay: cell-based or functional assay
[2] = biological target: T2, human calcitonin receptor; assay: ratio of IC50 on human calcitonin receptor (Assay VII) to IC50 on human amylin receptor (Assay V)
Outline: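 Competition binding by SPA with cell membranes (35 ng/μL) and SPA beads in 50 mM Hepes pH 7.4 with 1 mM CaCl2, 5 mM MgCl2, 0.1% OA and 0.02% Tween20. Incubated 120 min at 25 °C with shaking, then counted.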

[3] = biological target: T3, rat amylin receptor (rat calcitonin …); assay: SPA competition binding, displacement of 125I-rat amylin from membranes of BHK tk'ts 13 cells transfected with rat calcitonin receptor + rat RAMP 3 (Assay VI)
rat calcitonin receptor [4] = biological target: T4, rat calcitonin receptor; assay: SPA competition binding, displacement of 125I-calcitonin from membranes of BHK tk'ts 13 cells transfected with rat calcitonin receptor (Assay VIII)
rat calcitonin receptor [5] = biological target: T4, rat calcitonin receptor; assay: ratio of IC50 on rat calcitonin receptor (Assay VIII) to IC50 on rat amylin receptor (Assay VI)

| Binder | Ratio hCT/hAmylin funct. [1] | further results |
| --- | --- | --- |
| K([γGlu-γGlu-C20 diacid])CNTATCATQRLAEFLRHSSNNPGAILSSTNVGPETY-NH2 (disulfide 2-7 (inferred)) | 17.3 |  |
| K([γGlu-γGlu-C20 diacid])CNTATCATQRLASFLRHSSPNFGAIPSSTNVGPETY-NH2 (disulfide 2-7; N-terminus assumed; SMILES CC[C@H](C)[C@H](NC(=O)[C@H](C)NC(=O)CNC(=O)[C@H](Cc1ccccc1)NC(=O)[C@H](CC(N)=O)NC(=O)[C@@H]1CCCN1C(=O)[C@H](CO)NC(=O)[C@H](CO)NC(=O)[C@H](Cc1c[nH]cn1)NC(=O)[C@H](CCCNC(=N)N)NC(=O)[C@H](CC(C)C)NC(=O)[C@H](Cc1ccccc1)NC(=O)[C@H](CO)NC(=O)[C@H](C)NC(=O)[C@H](CC(C)C)NC(=O)[C@H](CCCNC(=N)N)NC(=O)[C@H](CCC(N)=O)NC(=O)[C@@H](NC(=O)[C@H](C)NC(=O)[C@@H]1CSSC[C@H](NC(=O)[C@@H](N)CCCCNC(=O)CC[C@H](NC(=O)CC[C@H](NC(=O)CCCCCCCCCCCCCCCCCCC(=O)O)C(=O)O)C(=O)O)C(=O)N[C@@H](CC(N)=O)C(=O)N[C@@H]([C@@H](C)O)C(=O)N[C@@H](C)C(=O)N[C@@H]([C@@H](C)O)C(=O)N1)[C@@H](C)O)C(=O)N1CCC[C@H]1C(=O)N[C@@H](CO)C(=O)N[C@@H](CO)C(=O)N[C@H](C(=O)N[C@@H](CC(N)=O)C(=O)N[C@H](C(=O)NCC(=O)N1CCC[C@H]1C(=O)N[C@@H](CCC(=O)O)C(=O)N[C@H](C(=O)N[C@@H](Cc1ccc(O)cc1)C(N)=O)[C@@H](C)O)C(C)C)[C@@H](C)O, not restated for each compound; also called compound 120) |  | Ratio hCT/hAmylin binding [2]: 45.3; IC50 [3]: 0.161 nM; IC50 (rat calcitonin receptor [4]): 140 nM; Ratio rCT/rAmylin binding (rat calcitonin receptor [5]): 868 |
| K([γGlu-C20 diacid])CNTATCATQRLAEFLRHSSPNFGAIPSSTNVGPRTY-NH2 (disulfide 2-7; N-terminus assumed; SMILES CC[C@H](C)[C@H](NC(=O)[C@H](C)NC(=O)CNC(=O)[C@H](Cc1ccccc1)NC(=O)[C@H](CC(N)=O)NC(=O)[C@@H]1CCCN1C(=O)[C@H](CO)NC(=O)[C@H](CO)NC(=O)[C@H](Cc1c[nH]cn1)NC(=O)[C@H](CCCNC(=N)N)NC(=O)[C@H](CC(C)C)NC(=O)[C@H](Cc1ccccc1)NC(=O)[C@H](CCC(=O)O)NC(=O)[C@H](C)NC(=O)[C@H](CC(C)C)NC(=O)[C@H](CCCNC(=N)N)NC(=O)[C@H](CCC(N)=O)NC(=O)[C@@H](NC(=O)[C@H](C)NC(=O)[C@@H]1CSSC[C@H](NC(=O)[C@@H](N)CCCCNC(=O)CC[C@H](NC(=O)CCCCCCCCCCCCCCCCCCC(=O)O)C(=O)O)C(=O)N[C@@H](CC(N)=O)C(=O)N[C@@H]([C@@H](C)O)C(=O)N[C@@H](C)C(=O)N[C@@H]([C@@H](C)O)C(=O)N1)[C@@H](C)O)C(=O)N1CCC[C@H]1C(=O)N[C@@H](CO)C(=O)N[C@@H](CO)C(=O)N[C@H](C(=O)N[C@@H](CC(N)=O)C(=O)N[C@H](C(=O)NCC(=O)N1CCC[C@H]1C(=O)N[C@@H](CCCNC(=N)N)C(=O)N[C@H](C(=O)N[C@@H](Cc1ccc(O)cc1)C(N)=O)[C@@H](C)O)C(C)C)[C@@H](C)O, not restated for each compound) |  | Ratio hCT/hAmylin binding [2]: 38.6; IC50 [3]: 0.339 nM; IC50 (rat calcitonin receptor [4]): 15.4 nM; Ratio rCT/rAmylin binding (rat calcitonin receptor [5]): 45.5 |
| K([AEEA-AEEA-γGlu-C20 diacid])CNTATCATQRLANFLRHSSPNFGAIPSSTNVGPNTY-NH2 (disulfide 2-7 (inferred), also called compound 98) | 19.5 |  |
| K([γGlu-C14 diacid])CNTATCATQRLANFLRHSSPNFGAIPSSTNVGHNTY-NH2 (disulfide 2-7 (inferred)) [N^ε1-[(4S)-4-carboxy-4-(13-carboxytridecanoylamino)butanoyl]-[Arg17,Pro21,Pro27,His34]-h-amylin] | 38.8 |  |
| K([AEEA-AEEA-γGlu-C20 diacid])CNTATCATQRLANFLRHSSPNFGAIPSSTNVGRNTY-NH2 (disulfide 2-7 (inferred), also called compound 95) | 33 |  |
| K([γGlu-γGlu-C20 diacid])CNTATCATQRLAEFLRHSSPNFGAIPSSTNVGPRTY-NH2 (disulfide 2-7 (inferred), also called compound 110) | 29.3 |  |
| K([AEEA-AEEA-γGlu-C20 diacid])CNTATCATQRLANFLRHSSPNFGAIPSSTNVGHNTY-NH2 (disulfide 2-7 (inferred), also called compound 97) | 33 |  |
| K([γGlu-C16 diacid])CNTATCATQRLANFLRHSSPNFGAIPSSTNVGHNTY-NH2 (disulfide 2-7 (inferred)) [N^ε1-[(4S)-4-carboxy-4-(15-carboxypentadecanoylamino)butanoyl]-[Arg17,Pro21,Pro27,His34]-h-amylin] | 65.1 |  |
| K([AEEA-AEEA-γGlu-C20 diacid])CNTATCATQRLANFLRHSSPNFGAIPSSTPVGSNTY-NH2 (disulfide 2-7 (inferred), also called compound 96) | 21 |  |
| K([γGlu-γGlu-C20 diacid])CNTATCATQRLADFLRHSSPNFGAIPSSTNVGPRTY-NH2 (disulfide 2-7 (inferred), also called compound 130) | 44.9 |  |
| K([γGlu-C20 diacid])CNTATCATQRLAEFLRHSSPNFGAIPSSTNVGPRTY-NH2 (disulfide 2-7 (inferred)) | 17 |  |
| K([γGlu-C20 diacid])CNTATCATQRLADFLRHSSPNFGAIPSSTNVGPRTY-NH2 (disulfide 2-7 (inferred)) | 24.9 |  |
| K([γGlu-γGlu-C20 diacid])CNTATCATQRLAEFLRHSSPNFGAIPSSTNVGHETY-NH2 (disulfide 2-7 (inferred)) | 15.8 |  |
| K([γGlu-C18 diacid])CNTATCATQRLANFLRHSSPNFGAIPSSTNVGHNTY-NH2 (disulfide 2-7 (inferred)) [N^ε1-[(4S)-4-carboxy-4-(17-carboxyheptadecanoylamino)butanoyl]-[Arg17,Pro21,Pro27,His34]-h-amylin] | 60.9 |  |
| K([γGlu-γGlu-C20 diacid])CNTATCATQRLAHFLRHSSPNFGAIPSSTNVGSNTY-NH2 (disulfide 2-7 (inferred), also called compound 92) | 28 |  |
| K([γGlu-γGlu-C20 diacid])CNTATCATQRLAEFLRHSSPNFGAIPSSTNVGPHTY-NH2 (disulfide 2-7 (inferred)) | 16.4 |  |
| K([γGlu-γGlu-C20 diacid])CNTATCATQRLANFLRHSSPNFGAIPSSTPVGPRTY-NH2 (disulfide 2-7 (inferred)) | 26 |  |
| K([AEEA-C20 diacid])CNTATCATQRLANFLRHSSPNFGAIPSSTNVGHNTY-NH2 (disulfide 2-7 (inferred), also called compound 91) [N^ε1-[2-[2-[2-(19-carboxynonadecanoylamino)ethoxy]ethoxy]acetyl]-[Arg17,Pro21,Pro27,His34]-h-amylin] | 36.9 |  |
